Assay results as given in the supplement of paper PMC9112550, “Optimization of the antimicrobial peptide Bac7 by deep mutational scanning” (BMC Biology, 2022).

Tested on: Escherichia coli TOP10
Experiment: shrunken log2 fold change of peptide-encoding DNA abundance (4.5 h post-induction vs induction); higher = less antimicrobial activity (less host growth inhibition)
Settings: time post-induction: 4.5 h; library: site-saturation at positions 5, 18, 19, 20
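Further: peptides expressed intracellularly from a pBAD plasmid library in pooled LB shake-flask culture, induced with 0.3% L-arabinose, DNA abundance read by NGS, three biological replicates, DESeq2 with apeglm shrinkage.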

Sequence | shrunken log2 fold change
RRIRVRPPRLPRPRPRPNYYPRP | -0.373
RRIRGRPPRLPRPRPRPVIGPRP | 0.388
RRIRWRPPRLPRPRPRPMHRPRP | -0.0497
RRIRWRPPRLPRPRPRPPDQPRP | 0.694
RRIRERPPRLPRPRPRPCHSPRP | -0.0339
RRIRSRPPRLPRPRPRPINTPRP | -0.648
RRIRWRPPRLPRPRPRPMVFPRP | 0.274
RRIRNRPPRLPRPRPRPEVDPRP | 0.478
RRIRLRPPRLPRPRPRPTICPRP | -0.176
RRIRWRPPRLPRPRPRPVMDPRP | -0.385
RRIRYRPPRLPRPRPRPLAPPRP | 0.107
RRIRPRPPRLPRPRPRPTMQPRP | 0.393
RRIRTRPPRLPRPRPRPLFSPRP | -0.717
RRIRHRPPRLPRPRPRPYWEPRP | -0.238
RRIRDRPPRLPRPRPRPVKGPRP | 0.0617
RRIRSRPPRLPRPRPRPDHPPRP | -0.0828
RRIRKRPPRLPRPRPRPHHLPRP | -0.232
RRIRTRPPRLPRPRPRPYYEPRP | -0.0557
RRIRSRPPRLPRPRPRPKMKPRP | 0.912
RRIRQRPPRLPRPRPRPKWVPRP | 0.0809
RRIRRRPPRLPRPRPRPDYTPRP | -0.0883
RRIRVRPPRLPRPRPRPPPVPRP | 0.767
RRIRVRPPRLPRPRPRPFNKPRP | 0.791
RRIRPRPPRLPRPRPRPESQPRP | -0.0975
RRIRARPPRLPRPRPRPISCPRP | 0.0406

Sequence | shrunken log2 fold change
RRIRTRPPRLPRPRPRPLAIPRP | 0.00788
RRIRSRPPRLPRPRPRPQRSPRP | 0.316
RRIRIRPPRLPRPRPRPCWPPRP | -0.232
RRIRMRPPRLPRPRPRPDFFPRP | 0.29
RRIRCRPPRLPRPRPRPQYCPRP | -0.135
RRIRFRPPRLPRPRPRPAYLPRP | -0.649
RRIRKRPPRLPRPRPRPMNVPRP | 0.13
RRIRRRPPRLPRPRPRPWLAPRP | 0.35
RRIRLRPPRLPRPRPRPYVSPRP | -0.0356
RRIRCRPPRLPRPRPRPVSNPRP | 0.0201
RRIRWRPPRLPRPRPRPHIYPRP | -0.358
RRIRCRPPRLPRPRPRPICDPRP | -0.0093
RRIRNRPPRLPRPRPRPHNRPRP | 0.0237
RRIRTRPPRLPRPRPRPHCLPRP | -0.305
RRIRDRPPRLPRPRPRPLTGPRP | 0.266
RRIRFRPPRLPRPRPRPTQHPRP | 0.168
RRIRGRPPRLPRPRPRPKQEPRP | 0.0916
RRIRARPPRLPRPRPRPENNPRP | 0.263
RRIRIRPPRLPRPRPRPQPLPRP | -0.371
RRIRGRPPRLPRPRPRPPMRPRP | 1.39
RRIRWRPPRLPRPRPRPWQSPRP | 0.0143
RRIRKRPPRLPRPRPRPIIFPRP | -0.147
RRIRVRPPRLPRPRPRPWDIPRP | -0.235
RRIRIRPPRLPRPRPRPFNWPRP | -0.155
RRIRMRPPRLPRPRPRPGYWPRP | 0.0653

Sequence | shrunken log2 fold change
RRIRDRPPRLPRPRPRPIMSPRP | -0.0134
RRIRYRPPRLPRPRPRPFRKPRP | -0.00664
RRIRGRPPRLPRPRPRPQQQPRP | 0.843
RRIRQRPPRLPRPRPRPPPNPRP | 0.508
RRIRLRPPRLPRPRPRPQDVPRP | -0.0265
RRIRMRPPRLPRPRPRPYVMPRP | -0.0161
RRIRRRPPRLPRPRPRPTIDPRP | -0.0234
RRIRLRPPRLPRPRPRPSVMPRP | -0.199
RRIRNRPPRLPRPRPRPREYPRP | 0.0336
RRIRQRPPRLPRPRPRPPKPPRP | -0.0724
RRIRCRPPRLPRPRPRPYQCPRP | -0.133
RRIRGRPPRLPRPRPRPCCFPRP | 0.773
RRIRYRPPRLPRPRPRPIGKPRP | 0.0104
RRIRLRPPRLPRPRPRPSWPPRP | 0.00705
RRIRSRPPRLPRPRPRPCHLPRP | -0.0433
RRIRPRPPRLPRPRPRPGMTPRP | 0.0694
RRIRQRPPRLPRPRPRPKIIPRP | -0.367
RRIRQRPPRLPRPRPRPKTLPRP | -0.156
RRIRHRPPRLPRPRPRPGKLPRP | 0.169
RRIRDRPPRLPRPRPRPNDAPRP | 0.0621
RRIRIRPPRLPRPRPRPFKPPRP | -0.395
RRIRPRPPRLPRPRPRPWTHPRP | -0.0188
RRIRMRPPRLPRPRPRPLHAPRP | 1.29
RRIRHRPPRLPRPRPRPVSTPRP | -0.263
RRIRFRPPRLPRPRPRPEASPRP | 0.0218
